For orientation: Kd means the constant that tells how readily two partners part at equilibrium. Read a high Kd as lower affinity.

Residue numbers refer to the chain shown, from its start.

The target of test [1] is T1, shCD131 F103A (human, UniProt P32927 17-438).
T1 construct: C-terminal 6xHis
T1 sequence: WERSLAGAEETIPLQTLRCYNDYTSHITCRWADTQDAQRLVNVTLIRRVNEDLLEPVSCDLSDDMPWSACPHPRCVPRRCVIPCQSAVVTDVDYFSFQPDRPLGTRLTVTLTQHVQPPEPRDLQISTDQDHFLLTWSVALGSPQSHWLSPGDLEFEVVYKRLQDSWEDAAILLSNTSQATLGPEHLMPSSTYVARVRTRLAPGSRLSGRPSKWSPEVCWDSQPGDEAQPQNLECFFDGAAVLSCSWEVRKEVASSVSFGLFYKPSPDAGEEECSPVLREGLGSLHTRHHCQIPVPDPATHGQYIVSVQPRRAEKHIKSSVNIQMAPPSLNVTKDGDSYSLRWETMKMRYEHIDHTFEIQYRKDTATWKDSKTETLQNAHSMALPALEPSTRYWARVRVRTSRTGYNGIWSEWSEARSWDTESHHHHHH
The test is described as follows: SPR, Fab over captured mutant. How it is done:
(§1) As shβc is a dimer, kinetics assays were performed with shβc captured on the sensor surface, and purified Fab injected as the analyte. Avidity effects were avoided by the use of Fab rather than whole IgG.
(§2) shCD131 was captured on spots 1 and 5 of each flow cell for 2 minutes at a concentration of 0.4 μg/ml. […] For some analysis purified Fab was injected over each flow cell for 3 minutes and dissociation was monitored for a further 10 minutes. Regeneration of the surface was performed after each cycle with a 40 second injection of 25 mM glycine, pH 2.0. The analysis was performed with Fabs at several concentrations between 100 and 0.31 nM, with each concentration analyzed twice and in random order. The analysis was performed at a flow rate of 30 μl/min in HBS-EP buffer (10 mM Hepes, 150 mM NaCl, 3 mM EDTA, 0.005% Tween 20, pH 7.4) at 37° C. Responses from spots 2 and 4 of each flow cell, (in which shβc was not captured, but otherwise treated identically), were subtracted from those of spots 1 and 5 respectively to produce reference subtracted data. Reference subtracted responses from a blank injection comprising buffer alone were subtracted from the resultant sensorgrams to produce double referenced data suitable for kinetic analysis. Double-referenced sensorgrams were fitted using non-linear regression to a model describing 1:1 kinetics, including a term for mass transport limitation. The Rₘₐₓ value was fitted locally to account for slight deviations in the level of sCD131 captured, with association rate (kₐ), dissociation rate (kd) and equilibrium dissociation constant (KD) fitted globally.
(§3) Mapping of the shCD131 epitope was performed by measurement of the affinity of Fabs for various alanine point mutants of shCD131 essentially as described above, with the following exceptions. Each shCD131 mutant was captured for 120 seconds at concentrations between 1 and 5 μg/ml. For kinetic analysis, purified recombinant Fabs were injected for 2 minutes, and dissociation was monitored for a further 2 minutes. […] Fab concentrations ranged from 16 μM to 3.9 nM in two-fold dilutions.

Test [2] deals with T2, shCD131 I338A (human, UniProt P32927 17-438).
T2 construct: C-terminal 6xHis; also called 1338A
T2 sequence: T1 sequence with A87F, I322A
As to the kind of experiment: SPR, Fab over captured mutant. How it is done:
as §1, §2, §3

The target in test [3] is T3, shCD131 G420A (human, UniProt P32927 17-438).
T3 construct: C-terminal 6xHis
T3 sequence: T1 sequence with A87F, G404A
The test is described as follows: SPR, kinetics, Fab over captured mutant. (Surface plasmon resonance follows binding to a sensor surface in real time, without labels.)

Test [4] deals with T4, shCD131 M363A (human, UniProt P32927 17-438).
T4 construct: C-terminal 6xHis
T4 sequence: T1 sequence with A87F, M347A
As to the kind of experiment: SPR, kinetics, Fab over captured mutant.

B1: 9A2 Fab (Fab, V domains shown)
VH: EVQLLESGGGLVQPGGSLRLSCAASGFTFSHYHMLWVRQAPGKGLEWVSSIRSSGGFTYYADSVKGRFTISRDNSKNTLYLQMNSLRAEDTAVYYCARFYDSFFDIWGQGTMVTVSS
VL: DIQMTQSPSSVSASVGDRVTITCRASQGISSWLAWYQQKPGKAPKLLIYAASSLQSGVPSRFSGSGSGTDFTLTISSLQPEDFATYYCQQANSFPITFGQGTRLEIKR
notes: also called recombinant Fab of 9A2
As to B1, the binding result in test [1] and in test [2] was “no binding (tested: Fab up to 16 µM)” throughout. Moreover, the figures for the Kd in test [3] and in test [4] were 63 nM and 171 nM, respectively.

Source of the values: patent US20190062438A1 (CSL, published 2019).
